{"source": "patent US9828628", "key": {"[1]": {"target": "HIV-1 gp41 epitope peptide with linker, conjugated to 17-base DNA (peptide-linker-DNA) and hybridized to the modular oligonucleotide probe (HIV-1)", "assay": "electrochemical modular probe (methylene blue, square wave voltammetry) on a gold electrode, antibody titration in 80% whole blood [panel c (lower]"}, "[2]": {"target": "HIV-1 gp41 epitope peptide with linker, conjugated to 17-base DNA (peptide-linker-DNA) and hybridized to the modular oligonucleotide probe (HIV-1)", "assay": "fluorescent modular DNA probe with two gp41 peptide copies, titrated with antibody; two-state fit"}}, "data": [{"substance": "antibody 2F5 specific for gp41 (Polymun Scientific)", "values": [{"measurement": "Kd", "setting": "[1]", "result": 33, "unit": "nM"}, {"measurement": "Kd", "setting": "[2]", "result": 4, "unit": "nM"}]}]}
